For the assay, the target named is N-terminal domain of the HIV-1 capsid protein (HIV-1) (UniProt P12493). The assay is described as follows: ITC. Background: In ITC the heat of successive injections is recorded.

The record followed here is PMC6684243.

“calcium-saturated human calmodulin ((Ca^2+)4-CaM) (from UniProt P0DP23 1-149) (natural protein)”: the dissociation constant Kd (usually the constant that tells how readily two partners part at equilibrium) stood at 3.73 µM and the stoichiometry N (as a rule, the number of molecules, sites or subunits per partner or assembly) is 1.
